The values below come from US20220372138A1 (IOMX THERAPEUTICS, published 2022).

Changes are numbered by the printed parent chain. Like-named read-outs stand apart in the source and are kept apart here. Bounds are passed on as bounds.

Assay [1] concerns the target T1, full-length ECD of human IGSF11 fused to murine Fc (human, UniProt Q5DX21 23-241).
T1 construct: also called Fc-fusion IGSF11 ECD; not shown: murine Fc
T1 sequence: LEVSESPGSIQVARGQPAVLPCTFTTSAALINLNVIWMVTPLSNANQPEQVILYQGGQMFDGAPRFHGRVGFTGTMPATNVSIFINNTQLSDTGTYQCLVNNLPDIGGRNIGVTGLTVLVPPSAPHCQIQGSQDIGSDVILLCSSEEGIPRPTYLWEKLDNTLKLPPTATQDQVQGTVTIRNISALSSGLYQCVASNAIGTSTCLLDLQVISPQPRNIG
Briefly: IgG ELISA. A general note: ELISA stands for enzyme-linked immunosorbent assay.

For assay [2], the target named is T2, IgV domain of human IGSF11 fused to murine IgG2a Fc (human, UniProt Q5DX21 23-143).
T2 construct: not shown: murine IgG2a Fc-region
T2 sequence: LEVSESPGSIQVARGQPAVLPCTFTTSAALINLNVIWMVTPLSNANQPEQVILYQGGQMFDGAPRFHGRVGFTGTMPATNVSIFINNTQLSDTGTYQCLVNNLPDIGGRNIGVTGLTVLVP
Description: IgG ELISA.

The target of assay [3] is T3, murine IGSF11 expressed on cells (mouse, UniProt P0C673 23-428).
T3 construct: MC38-IGSF11, CT26-IGSF11, MC38-wt (naturally expresses murine IGSF11)
T3 sequence: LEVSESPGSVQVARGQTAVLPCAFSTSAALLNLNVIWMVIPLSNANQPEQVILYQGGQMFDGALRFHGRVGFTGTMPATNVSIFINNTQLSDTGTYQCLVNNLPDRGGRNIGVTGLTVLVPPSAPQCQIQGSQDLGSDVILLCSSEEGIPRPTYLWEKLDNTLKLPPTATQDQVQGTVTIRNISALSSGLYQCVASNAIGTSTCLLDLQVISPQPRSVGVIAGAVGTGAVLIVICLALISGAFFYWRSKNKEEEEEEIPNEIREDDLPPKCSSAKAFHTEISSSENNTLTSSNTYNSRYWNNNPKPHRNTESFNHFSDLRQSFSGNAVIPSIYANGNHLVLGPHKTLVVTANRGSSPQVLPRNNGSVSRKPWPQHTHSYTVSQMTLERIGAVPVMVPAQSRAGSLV
Briefly: IgG FACS CT26-IGSF11.
Description: (§1) Unbound antibodies were removed by washing the cells three time with FACS buffer. Bound antibodies were detected with a mouse anti-human IgG antibody conjugated with AlexaFluor647.

Assay [4] has as its target T3, murine IGSF11 expressed on cells. Description: IgG FACS MC38-IGSF11.
Description: as §1
Assay [5] concerns the target T4, human IGSF11 (VSIG3) expressed on cells (human, UniProt Q5DX21 23-431).
T4 sequence: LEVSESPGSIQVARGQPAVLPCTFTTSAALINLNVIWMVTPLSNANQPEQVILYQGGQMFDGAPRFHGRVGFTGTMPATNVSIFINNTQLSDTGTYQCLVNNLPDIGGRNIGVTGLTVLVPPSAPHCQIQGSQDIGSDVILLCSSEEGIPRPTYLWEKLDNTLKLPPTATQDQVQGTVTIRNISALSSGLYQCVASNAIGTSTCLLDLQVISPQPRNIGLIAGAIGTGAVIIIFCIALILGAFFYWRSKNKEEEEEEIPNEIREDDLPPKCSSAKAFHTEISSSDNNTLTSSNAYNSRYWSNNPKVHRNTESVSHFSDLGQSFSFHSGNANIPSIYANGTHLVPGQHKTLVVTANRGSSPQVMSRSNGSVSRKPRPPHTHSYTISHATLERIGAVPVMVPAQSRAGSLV
Description: IgG FACS MDA-MB-231-IGSF11.
Description: as §1

Assay [6] has as its target T5, extracellular domain (ECD) of human IGSF11 (VSIG3), recombinant (human, UniProt Q5DX21 23-241).
T5 construct: biotinylated where captured on streptavidin; tags of the reagent not always stated; also called IGSF11 (ECD domain); ECD-IGSF11
T5 sequence: T1 sequence
Description: BLI apparent affinity, IgG on AHC sensor, IGSF11 ECD 100 nM.
Description: Briefly, various APBs were loaded on an optical biosensor via a commercially available Capture System (AHC sensors, ForteBio).

The target of assay [7] is T5, extracellular domain (ECD) of human …. Briefly: Fab ELISA.
Description: (§2) In order to identify IGSF11-specific binding ABPs, monoclonal Fabs expressed from E. coli were generated from the enriched set of anti-IGFS11 antibody-expressing phage. After bacterial lysis, the Fabs were tested for their binding properties and cross-reactivity profile on recombinant ECD-IGSF11 (human, mouse and cynomolgus monkey) by standard ELISA. Briefly, biotinylated recombinant ECD-IGSF11 from human, mouse, or cynomolgus monkey were immobilized at 2 ug/mL on a streptavidin-coated 384-well Maxisorp plate. The surface was blocked with 2% (w/v) skim milk powder in PBST. After three wash cycles with PBST, a bacterial lysate of each of the anti-IGSF11 Fabs in 2% (w/v) skim milk powder was applied to the immobilized IGSF11 and incubated for 1 h. After removing all unbound Fab by 3 wash cycles with PBST, bound Fab antibodies were detected with a goat anti-human Fab antibody conjugated with horseradish peroxidase. After three wash cycles with PBST the ELISA was developed with TMB substrate.
The target in assay [8] is T6, ECD of murine IGSF11, recombinant biotinylated (mouse, UniProt P0C673 23-240).
T6 construct: whole entry named; also called Mouse IGSF11
T6 sequence: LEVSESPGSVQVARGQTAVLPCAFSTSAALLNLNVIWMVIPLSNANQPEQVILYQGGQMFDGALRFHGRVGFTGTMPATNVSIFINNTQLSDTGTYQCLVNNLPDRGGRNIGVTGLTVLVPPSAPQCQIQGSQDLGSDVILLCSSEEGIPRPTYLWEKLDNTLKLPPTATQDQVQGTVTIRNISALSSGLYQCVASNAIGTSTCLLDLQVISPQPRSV
Description: Fab ELISA.
Description: as §2

Assay [9] has as its target T7, ECD of cynomolgus monkey IGSF11, recombinant biotinylated (cynomolgus monkey, UniProt Q5DX21 23-241 (human entry)).
T7 construct: whole entry named
T7 chain: T1 sequence with P17T, I83V, A185T, S187T
Description: Fab ELISA.
Description: as §2

The next assay concerns the target Streptavidin (UniProt P22629 37-163, limits assumed). Briefly: Fab ELISA.
Assay [10] concerns the target T4, human IGSF11 (VSIG3) expressed on cells. Description: IgG FACS Colo741.
Description: as §1
In assay [11] the target is T8, IgC2 domain of human IGSF11 fused to murine IgG2a Fc (human, UniProt Q5DX21 137-241).
T8 construct: not shown: murine IgG2a Fc-region
T8 sequence: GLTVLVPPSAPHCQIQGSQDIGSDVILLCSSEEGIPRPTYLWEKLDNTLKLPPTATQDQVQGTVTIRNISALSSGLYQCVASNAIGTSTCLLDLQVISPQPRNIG
Description: IgG ELISA.

For assay [12], the target named is T5, extracellular domain (ECD) of human …. Briefly: BLI. In general terms: Biolayer interferometry detects binding as a change in optical thickness at a sensor tip.
Assay [13] has the same target. Briefly: SPR. (In general: In SPR one partner is held on a chip, and binding of the other changes the refractive index at the surface.)
In assay [14] the target is T1, full-length ECD of human IGSF11 fused …. Description: IgG ELISA. The source holds these as a separate data set.
Description: (§3) Binding of IgG antibodies to each of the full-length ECD of IGSF11, to the IgV domain of IGSF11 and to the IgC2 domain of IGSF11, was tested in the ELISA assay as follows: briefly, recombinant domains of Fc-fusion IGSF11 proteins were coated at 2 ug/mL on a 384-well Maxisorp plate. The surface was blocked with 2% (w/v) skim milk powder in PBST. […] After removing all unbound antibodies by 3 wash cycles with PBST, bound IgG ABPs were detected with a goat anti-human IgG antibody conjugated with horseradish peroxidase. After three wash cycles with PBST the ELISA was developed with TMB substrate.
Assay [15] has as its target T8, IgC2 domain of human IGSF11 fused to …. Description: IgG ELISA. The source holds these as a separate data set.
Description: as §3
Assay [16] addresses T4, human IGSF11 (VSIG3) expressed on cells. Briefly: IgG1 FACS HEK-OE.
Assay [17] deals with T9, human IGSF11 (VSIG3) ECD, His-tagged (human, UniProt Q5DX21 23-241).
T9 construct: in part bought (SinoBiological 13094-H08H); also called HIS-IGSF11; IGSF11-HIS; not shown: His tag
T9 sequence: T1 sequence
Description: IgG1 ELISA EC50 <0.02 nM.

In assay [18] the target is T4, human IGSF11 (VSIG3) expressed on cells. Description: FACS, DMS 273 cells with scrambled control siRNA (SC).
For assay [19] the target is unchanged. Briefly: FACS, M579-A2-luc cells with scrambled control siRNA (SC).
For assay [20] the target is unchanged. Description: FACS, DMS 273 cells with IGSF11 siRNA (KD, knock-down control).
Assay [21] has the same target. Description: FACS, M579-A2-luc cells with IGSF11 siRNA (KD, knock-down control).

Chain of Streptavidin (P22629 37-163 limits assumed): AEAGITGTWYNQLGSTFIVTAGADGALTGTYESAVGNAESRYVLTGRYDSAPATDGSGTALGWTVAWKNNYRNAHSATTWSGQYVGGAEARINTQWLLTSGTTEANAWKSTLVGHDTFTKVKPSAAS
Description for Streptavidin: as §2

B1: C-007 (IgG1 format) (antibody, V domains shown)
VH: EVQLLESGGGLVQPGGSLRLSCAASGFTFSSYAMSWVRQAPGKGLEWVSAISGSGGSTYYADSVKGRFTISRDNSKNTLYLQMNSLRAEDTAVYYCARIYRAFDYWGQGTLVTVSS
VL: ASVLTQPPSVSAAPGQKVTISCSGSSSNIGNNYVSWYQQLPGTAPKLLIYDNNKRPSGIPDRFSGSKSGTSATLGITGLQAEDEADYYCQLYEEEHSTWVFGGGTKLTVL
For B1, the EC50 in assay [1] was below 1 nM; in assay [2], below 1 nM; in assay [3], 20 to 50 nM; in [4], below 20 nM; in assay [5], below 10 nM. Moreover, the Kd in [6] was below 125 nM.

B2: C-004 (Fab format) (Fab, V domains shown)
VH: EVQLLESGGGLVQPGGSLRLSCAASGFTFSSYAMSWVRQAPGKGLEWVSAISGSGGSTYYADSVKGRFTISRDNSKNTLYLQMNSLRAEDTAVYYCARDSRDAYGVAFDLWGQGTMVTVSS
VL: B1 VL with Q90L, L91T, Y92W, E93T, E94G, E95A, H96G, S97R, T98I, W99F
notes: Fab from E. coli lysate
Regarding B2, the A450 in assay [7] is below 1; in assay [8], below 1; in assay [9], below 1; with Streptavidin, below 0.1.

B3: C-001 (IgG1 format) (antibody, V domains shown)
VH: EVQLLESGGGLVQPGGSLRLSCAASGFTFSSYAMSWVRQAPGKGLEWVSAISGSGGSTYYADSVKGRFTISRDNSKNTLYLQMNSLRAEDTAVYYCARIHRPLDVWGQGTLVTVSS
VL: B1 VL with Q90G, L91S, Y92W, E93L, H96R, T98Q, W99Y
Consider B3, for which the EC50 in [1] is below 1 nM; in [2], below 1 nM; in [3] it was 20 to 50 nM; in [4] it was 50 to 100 nM; in assay [5], below 10 nM. For the same molecule, the Kd in assay [6] is below 75 nM.

B4: C-019 (Fab format) (Fab, V domains shown)
VH: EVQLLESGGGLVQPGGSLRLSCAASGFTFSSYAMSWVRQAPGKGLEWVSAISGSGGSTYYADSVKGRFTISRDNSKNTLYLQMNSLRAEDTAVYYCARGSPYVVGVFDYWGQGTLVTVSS
VL: DIQMTQSPSSLSASVGDRVTITCRASQSISSYLNWYQQKPGKAPKLLIYAASSLQSGVPSRFSGSGSGTDFTLTISSLQPEDFATYYCQQWQHEPPYTFGQGTKVEIK
notes: Fab from E. coli lysate
For the molecule B4, the A450 was below 1 in [7], below 1 in assay [8], below 1 in assay [9] and below 0.1 with Streptavidin.

B5: D-115 (IgG format) (antibody, V domains shown)
VH: EVQLLESGGGLVQPGGSLRLSCAASGFTFQFSALSWVRQAPGKGLEWVSAISYGGGSKYYADSVKGRFTISRDNSKNTLYLQMNSLRAEDTAVYYCARDSRDAYGVAFDLWGQGTMVTVSS
VL: ASVLTQPPSVSAAPGQKVTISCSGSSSNIGNNYVSWYQQLPGTAPKLLIYDNNKRPSGIPDRFSGSKSGTSATLGITGLQAEDEADYYCQSYESRLFVFGGGTKLTVL
B5 yielded an EC50 in [10] below 0.1 nM.

B6: C-003 (IgG1 format) (antibody, V domains shown)
VH: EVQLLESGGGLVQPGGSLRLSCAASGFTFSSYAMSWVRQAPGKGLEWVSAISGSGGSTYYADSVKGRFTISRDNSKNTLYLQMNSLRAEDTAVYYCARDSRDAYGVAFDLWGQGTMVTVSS
VL: B5 VL with Q90L, E93T, R95S, L96Q, F97Y
Take B6: the EC50 is below 1 nM in assay [1]; below 1 nM in assay [11]; below 20 nM in assay [3]; below 20 nM in assay [4]; 10 to 15 nM in assay [5]. The Kd in assay [6] was below 15 nM.

B7: A-011 (IgG1 format) (antibody, V domains shown)
VH: QVQLVESGGGVVQPGRSLRLSCAASGFTFSSYAMHWVRQAPGKGLEWVAVISYDGSNKYYADSVKGRFTISRDNSKNTLYLQMNSLRAEDTAVYYCAEGGALNYYGMDVWGQGTTVTVSS
VL: SSELTQDPGVSVALGQTVRITCQGDSLRHFYATWYQQKPGQAPILVIYGKNNRPSGIPDRFSGSSSEDTASLTITGAQAEDEADYYCQSRDPRNNHLIFGGGTKLIVL
notes: human IgG1 format
With B7, the Kd in assay [12] lay in the range of 10 to 20 nM; in assay [13], 250 to 500 nM. Further, the EC50 was below 1 nM in [14], below 1 nM in assay [15], above 50 nM in [16] and below 0.02 nM in assay [17]. Also, the “% binding (FACS heat-map)” value was 6.95% in assay [18], 2.05% in assay [19], 3.4% in assay [20] and 2.41% in assay [21].

B8: C-018 (Fab format) (Fab, V domains shown)
VH: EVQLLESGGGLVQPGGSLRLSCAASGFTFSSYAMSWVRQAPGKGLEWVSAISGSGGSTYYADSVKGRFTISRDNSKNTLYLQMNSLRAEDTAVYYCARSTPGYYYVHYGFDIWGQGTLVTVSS
VL: SYELTQPPSVSVSPGQTASITCSGDKLGDKYASWYQQKPGQSPVLVIYQDSKRPSGIPERFSGSNSGNTATLTISGTQAEDEADYYCQAWSTSTHSWVFGGGTKLTVL
notes: Fab from E. coli lysate
For B8, the A450 was below 1 in [7], below 1 in assay [8], below 1 in assay [9] and below 0.1 with Streptavidin.

B9: C-027 (Fab format) (Fab, V domains shown)
VH: QVQLVQSGAEVKKPGSSVKVSCKASGGTFSSYAISWVRQAPGQGLEWMGGIIPIFGTANYAQKFQGRVTITADESTSTAYMELSSLRSEDTAVYYCARENIPSYYDSSGRQDAFDIWGQGTMVTVSS
VL: B8 VL with A89S, W90Y, S91L, T92H, S93K, T94S, S96G, W97A
notes: Fab from E. coli lysate
On to B9, for which the A450 in [7] is below 1; in assay [9], below 1; with Streptavidin, below 0.1.

The EC50 is the concentration at which the effect is half-maximal.
